Source: patent publication US20240216509A1

Target: PD-L1 CAR (2nd generation CAR, PDL1-CD28-CD3ζ) expressed on NK-92 cells (human) (UniProt P01732)
Experiment: cell-based or functional assay

UniProt P01732, sequence (P01732 other isoform, or with tags, fused parts or gaps limits assumed): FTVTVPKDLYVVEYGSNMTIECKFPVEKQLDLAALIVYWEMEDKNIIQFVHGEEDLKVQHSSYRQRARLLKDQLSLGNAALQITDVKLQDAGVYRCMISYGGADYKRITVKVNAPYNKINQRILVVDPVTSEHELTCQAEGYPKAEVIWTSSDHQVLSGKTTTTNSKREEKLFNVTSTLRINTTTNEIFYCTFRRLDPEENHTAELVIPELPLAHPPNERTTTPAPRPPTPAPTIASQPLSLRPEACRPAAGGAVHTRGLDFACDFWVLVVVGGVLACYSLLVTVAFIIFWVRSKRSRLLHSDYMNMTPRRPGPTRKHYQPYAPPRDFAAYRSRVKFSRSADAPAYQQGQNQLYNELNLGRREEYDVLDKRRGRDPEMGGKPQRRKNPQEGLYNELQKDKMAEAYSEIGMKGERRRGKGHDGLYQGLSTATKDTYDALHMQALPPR

## recombinant human PD-1-Fc fusion protein (rhPD-1-Fc) (from UniProt Q15116 25-167)
  EC50 of degranulation of CAR NK-92 over increasing concentrations of plate-bound rhPD-1-Fc: 0.61 µg/mL
